Laboratory results reported in patent US20140087995A1 (published 2014).
Numbered stars: 1 amine (or outer) side, 2 acyl side, 3 side chain; on linkers, the order of the positions; unused ones are H or OH. Bridge positions count the residues as written; N and C are the ends. Side chains are listed from the residue outwards. Ends that are not written are not given here. * marks the point of attachment. C20 diacid = O=C(O)CCCCCCCCCCCCCCCCCCC(=O)*; γGlu = O=C(O)[C@H](CCC(=O)[*:2])N[*:1]

T1: human calcitonin receptor (human, UniProt P30988 25-474)
T1 sequence (looked up): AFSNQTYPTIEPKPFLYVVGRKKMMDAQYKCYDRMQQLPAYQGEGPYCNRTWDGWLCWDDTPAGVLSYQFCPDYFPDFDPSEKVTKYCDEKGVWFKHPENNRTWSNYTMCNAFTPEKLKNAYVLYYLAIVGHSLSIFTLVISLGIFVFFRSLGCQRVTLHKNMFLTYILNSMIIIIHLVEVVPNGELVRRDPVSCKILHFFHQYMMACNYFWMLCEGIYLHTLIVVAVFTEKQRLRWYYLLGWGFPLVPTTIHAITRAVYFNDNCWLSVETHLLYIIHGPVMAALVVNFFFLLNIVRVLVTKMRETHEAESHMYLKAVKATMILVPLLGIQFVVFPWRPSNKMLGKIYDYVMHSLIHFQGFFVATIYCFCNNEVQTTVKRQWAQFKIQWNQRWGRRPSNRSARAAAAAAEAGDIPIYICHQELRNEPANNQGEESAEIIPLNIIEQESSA

T2: human amylin 3(a) receptor (human calcitonin receptor + RAMP-3) (human, UniProt P30988 25-474; O60896 24-148, limits assumed)
T2 sequence (looked up) 1: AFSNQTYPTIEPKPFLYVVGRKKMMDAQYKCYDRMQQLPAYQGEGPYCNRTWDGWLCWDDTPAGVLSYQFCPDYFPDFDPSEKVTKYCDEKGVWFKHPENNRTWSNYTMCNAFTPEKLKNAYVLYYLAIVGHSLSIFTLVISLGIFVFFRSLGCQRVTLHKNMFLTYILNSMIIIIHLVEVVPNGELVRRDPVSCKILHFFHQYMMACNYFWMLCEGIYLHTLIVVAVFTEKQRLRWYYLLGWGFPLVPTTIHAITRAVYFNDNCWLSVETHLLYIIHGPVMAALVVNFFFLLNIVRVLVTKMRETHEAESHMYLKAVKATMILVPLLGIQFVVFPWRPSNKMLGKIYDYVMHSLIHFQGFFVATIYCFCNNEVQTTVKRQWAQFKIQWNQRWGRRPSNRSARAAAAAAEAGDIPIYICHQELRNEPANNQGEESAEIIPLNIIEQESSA
T2 sequence (looked up) 2: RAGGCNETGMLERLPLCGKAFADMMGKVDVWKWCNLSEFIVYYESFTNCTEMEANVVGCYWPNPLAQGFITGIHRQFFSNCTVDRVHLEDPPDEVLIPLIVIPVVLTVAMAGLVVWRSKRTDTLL


Assays:
[1] = molecular target: T1, human calcitonin receptor; assay: cell-based or functional assay
[2] = molecular target: T2, human amylin 3(a) receptor (human …); assay: cell-based or functional assay

Row | Binder | Ratio hCT/hAmylin funct. [1] | hAmylin-R funct. EC50 (pM) [2] | hCTR funct. EC50 (pM) [1]
1 | K([γGlu-γGlu-C20 diacid])CNTATCATQRLAEFLRHSSPNFGAIPSSTNVGSNTP-NH2 (disulfide 2-7; N-terminus assumed; SMILES CC[C@H](C)[C@H](NC(=O)[C@H](C)NC(=O)CNC(=O)[C@H](Cc1ccccc1)NC(=O)[C@H](CC(N)=O)NC(=O)[C@@H]1CCCN1C(=O)[C@H](CO)NC(=O)[C@H](CO)NC(=O)[C@H](Cc1c[nH]cn1)NC(=O)[C@H](CCCNC(=N)N)NC(=O)[C@H](CC(C)C)NC(=O)[C@H](Cc1ccccc1)NC(=O)[C@H](CCC(=O)O)NC(=O)[C@H](C)NC(=O)[C@H](CC(C)C)NC(=O)[C@H](CCCNC(=N)N)NC(=O)[C@H](CCC(N)=O)NC(=O)[C@@H](NC(=O)[C@H](C)NC(=O)[C@@H]1CSSC[C@H](NC(=O)[C@@H](N)CCCCNC(=O)CC[C@H](NC(=O)CC[C@H](NC(=O)CCCCCCCCCCCCCCCCCCC(=O)O)C(=O)O)C(=O)O)C(=O)N[C@@H](CC(N)=O)C(=O)N[C@@H]([C@@H](C)O)C(=O)N[C@@H](C)C(=O)N[C@@H]([C@@H](C)O)C(=O)N1)[C@@H](C)O)C(=O)N1CCC[C@H]1C(=O)N[C@@H](CO)C(=O)N[C@@H](CO)C(=O)N[C@H](C(=O)N[C@@H](CC(N)=O)C(=O)N[C@H](C(=O)NCC(=O)N[C@@H](CO)C(=O)N[C@@H](CC(N)=O)C(=O)N[C@H](C(=O)N1CCC[C@H]1C(N)=O)[C@@H](C)O)C(C)C)[C@@H](C)O, also called compound 13) | 2.2 | 213 pM | –
2 | K([γGlu-C20 diacid])CNTATCATQRLAEFLRHSSPNFGAIPSSTNVGPNTP-NH2 (disulfide 2-7; N-terminus assumed; SMILES CC[C@H](C)[C@H](NC(=O)[C@H](C)NC(=O)CNC(=O)[C@H](Cc1ccccc1)NC(=O)[C@H](CC(N)=O)NC(=O)[C@@H]1CCCN1C(=O)[C@H](CO)NC(=O)[C@H](CO)NC(=O)[C@H](Cc1c[nH]cn1)NC(=O)[C@H](CCCNC(=N)N)NC(=O)[C@H](CC(C)C)NC(=O)[C@H](Cc1ccccc1)NC(=O)[C@H](CCC(=O)O)NC(=O)[C@H](C)NC(=O)[C@H](CC(C)C)NC(=O)[C@H](CCCNC(=N)N)NC(=O)[C@H](CCC(N)=O)NC(=O)[C@@H](NC(=O)[C@H](C)NC(=O)[C@@H]1CSSC[C@H](NC(=O)[C@@H](N)CCCCNC(=O)CC[C@H](NC(=O)CCCCCCCCCCCCCCCCCCC(=O)O)C(=O)O)C(=O)N[C@@H](CC(N)=O)C(=O)N[C@@H]([C@@H](C)O)C(=O)N[C@@H](C)C(=O)N[C@@H]([C@@H](C)O)C(=O)N1)[C@@H](C)O)C(=O)N1CCC[C@H]1C(=O)N[C@@H](CO)C(=O)N[C@@H](CO)C(=O)N[C@H](C(=O)N[C@@H](CC(N)=O)C(=O)N[C@H](C(=O)NCC(=O)N1CCC[C@H]1C(=O)N[C@@H](CC(N)=O)C(=O)N[C@H](C(=O)N1CCC[C@H]1C(N)=O)[C@@H](C)O)C(C)C)[C@@H](C)O) | 0.9 | 105 pM | –
3 | K([γGlu-γGlu-C20 diacid])CNTATCATQRLAEFLRHSSPNFGAIPSSTNVGPETP-NH2 (disulfide 2-7; N-terminus assumed; SMILES CC[C@H](C)[C@H](NC(=O)[C@H](C)NC(=O)CNC(=O)[C@H](Cc1ccccc1)NC(=O)[C@H](CC(N)=O)NC(=O)[C@@H]1CCCN1C(=O)[C@H](CO)NC(=O)[C@H](CO)NC(=O)[C@H](Cc1c[nH]cn1)NC(=O)[C@H](CCCNC(=N)N)NC(=O)[C@H](CC(C)C)NC(=O)[C@H](Cc1ccccc1)NC(=O)[C@H](CCC(=O)O)NC(=O)[C@H](C)NC(=O)[C@H](CC(C)C)NC(=O)[C@H](CCCNC(=N)N)NC(=O)[C@H](CCC(N)=O)NC(=O)[C@@H](NC(=O)[C@H](C)NC(=O)[C@@H]1CSSC[C@H](NC(=O)[C@@H](N)CCCCNC(=O)CC[C@H](NC(=O)CC[C@H](NC(=O)CCCCCCCCCCCCCCCCCCC(=O)O)C(=O)O)C(=O)O)C(=O)N[C@@H](CC(N)=O)C(=O)N[C@@H]([C@@H](C)O)C(=O)N[C@@H](C)C(=O)N[C@@H]([C@@H](C)O)C(=O)N1)[C@@H](C)O)C(=O)N1CCC[C@H]1C(=O)N[C@@H](CO)C(=O)N[C@@H](CO)C(=O)N[C@H](C(=O)N[C@@H](CC(N)=O)C(=O)N[C@H](C(=O)NCC(=O)N1CCC[C@H]1C(=O)N[C@@H](CCC(=O)O)C(=O)N[C@H](C(=O)N1CCC[C@H]1C(N)=O)[C@@H](C)O)C(C)C)[C@@H](C)O) | 0.8 | 132 pM | 102 pM
4 | K([γGlu-C20 diacid])CNTATCATQRLAHFLRHSSPNFGAIPSSTNVGPNTP-NH2 (disulfide 2-7; N-terminus assumed; SMILES CC[C@H](C)[C@H](NC(=O)[C@H](C)NC(=O)CNC(=O)[C@H](Cc1ccccc1)NC(=O)[C@H](CC(N)=O)NC(=O)[C@@H]1CCCN1C(=O)[C@H](CO)NC(=O)[C@H](CO)NC(=O)[C@H](Cc1c[nH]cn1)NC(=O)[C@H](CCCNC(=N)N)NC(=O)[C@H](CC(C)C)NC(=O)[C@H](Cc1ccccc1)NC(=O)[C@H](Cc1c[nH]cn1)NC(=O)[C@H](C)NC(=O)[C@H](CC(C)C)NC(=O)[C@H](CCCNC(=N)N)NC(=O)[C@H](CCC(N)=O)NC(=O)[C@@H](NC(=O)[C@H](C)NC(=O)[C@@H]1CSSC[C@H](NC(=O)[C@@H](N)CCCCNC(=O)CC[C@H](NC(=O)CCCCCCCCCCCCCCCCCCC(=O)O)C(=O)O)C(=O)N[C@@H](CC(N)=O)C(=O)N[C@@H]([C@@H](C)O)C(=O)N[C@@H](C)C(=O)N[C@@H]([C@@H](C)O)C(=O)N1)[C@@H](C)O)C(=O)N1CCC[C@H]1C(=O)N[C@@H](CO)C(=O)N[C@@H](CO)C(=O)N[C@H](C(=O)N[C@@H](CC(N)=O)C(=O)N[C@H](C(=O)NCC(=O)N1CCC[C@H]1C(=O)N[C@@H](CC(N)=O)C(=O)N[C@H](C(=O)N1CCC[C@H]1C(N)=O)[C@@H](C)O)C(C)C)[C@@H](C)O) | 0.8 | 52 pM | –
5 | K([γGlu-C20 diacid])CNTATCATQRLAHFLRHSSPNFGAIPSSTPVGPNTY-NH2 (disulfide 2-7; N-terminus assumed; SMILES CC[C@H](C)[C@H](NC(=O)[C@H](C)NC(=O)CNC(=O)[C@H](Cc1ccccc1)NC(=O)[C@H](CC(N)=O)NC(=O)[C@@H]1CCCN1C(=O)[C@H](CO)NC(=O)[C@H](CO)NC(=O)[C@H](Cc1c[nH]cn1)NC(=O)[C@H](CCCNC(=N)N)NC(=O)[C@H](CC(C)C)NC(=O)[C@H](Cc1ccccc1)NC(=O)[C@H](Cc1c[nH]cn1)NC(=O)[C@H](C)NC(=O)[C@H](CC(C)C)NC(=O)[C@H](CCCNC(=N)N)NC(=O)[C@H](CCC(N)=O)NC(=O)[C@@H](NC(=O)[C@H](C)NC(=O)[C@@H]1CSSC[C@H](NC(=O)[C@@H](N)CCCCNC(=O)CC[C@H](NC(=O)CCCCCCCCCCCCCCCCCCC(=O)O)C(=O)O)C(=O)N[C@@H](CC(N)=O)C(=O)N[C@@H]([C@@H](C)O)C(=O)N[C@@H](C)C(=O)N[C@@H]([C@@H](C)O)C(=O)N1)[C@@H](C)O)C(=O)N1CCC[C@H]1C(=O)N[C@@H](CO)C(=O)N[C@@H](CO)C(=O)N[C@H](C(=O)N1CCC[C@H]1C(=O)N[C@H](C(=O)NCC(=O)N1CCC[C@H]1C(=O)N[C@@H](CC(N)=O)C(=O)N[C@H](C(=O)N[C@@H](Cc1ccc(O)cc1)C(N)=O)[C@@H](C)O)C(C)C)[C@@H](C)O) | 4.9 | 71 pM | –
6 | K([γGlu-C20 diacid])CNTATCATQRLAEFLRHSSPNFGAIPSSTNVGSNTP-NH2 (disulfide 2-7; N-terminus assumed; SMILES CC[C@H](C)[C@H](NC(=O)[C@H](C)NC(=O)CNC(=O)[C@H](Cc1ccccc1)NC(=O)[C@H](CC(N)=O)NC(=O)[C@@H]1CCCN1C(=O)[C@H](CO)NC(=O)[C@H](CO)NC(=O)[C@H](Cc1c[nH]cn1)NC(=O)[C@H](CCCNC(=N)N)NC(=O)[C@H](CC(C)C)NC(=O)[C@H](Cc1ccccc1)NC(=O)[C@H](CCC(=O)O)NC(=O)[C@H](C)NC(=O)[C@H](CC(C)C)NC(=O)[C@H](CCCNC(=N)N)NC(=O)[C@H](CCC(N)=O)NC(=O)[C@@H](NC(=O)[C@H](C)NC(=O)[C@@H]1CSSC[C@H](NC(=O)[C@@H](N)CCCCNC(=O)CC[C@H](NC(=O)CCCCCCCCCCCCCCCCCCC(=O)O)C(=O)O)C(=O)N[C@@H](CC(N)=O)C(=O)N[C@@H]([C@@H](C)O)C(=O)N[C@@H](C)C(=O)N[C@@H]([C@@H](C)O)C(=O)N1)[C@@H](C)O)C(=O)N1CCC[C@H]1C(=O)N[C@@H](CO)C(=O)N[C@@H](CO)C(=O)N[C@H](C(=O)N[C@@H](CC(N)=O)C(=O)N[C@H](C(=O)NCC(=O)N[C@@H](CO)C(=O)N[C@@H](CC(N)=O)C(=O)N[C@H](C(=O)N1CCC[C@H]1C(N)=O)[C@@H](C)O)C(C)C)[C@@H](C)O, also called compound 12) | 1.8 | 101 pM | –
